Experimental data as given in patent US20260167699A1 (Chugai, published 2026).

Columns and labels:
Experiment in all cases: SPR (Biacore), binding relative to GpH7-A5/GpH7-B3/GpL16-k0 x100;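 further: surface plasmon resonance at 25 °C, antibody captured on a sensor chip and soluble FcγR flowed over it in HBS-EP+ running buffer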
FcγRIIb = biological target: T1, FcγRIIb (human, UniProt P31994 43-217)
T1 construct: extracellular domain; also called 2b
T1 sequence: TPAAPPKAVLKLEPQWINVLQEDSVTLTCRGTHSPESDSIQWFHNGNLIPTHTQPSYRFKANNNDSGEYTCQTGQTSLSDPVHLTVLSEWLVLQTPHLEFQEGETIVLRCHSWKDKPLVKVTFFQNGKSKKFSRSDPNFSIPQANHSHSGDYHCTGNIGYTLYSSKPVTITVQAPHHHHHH
Description: (§1) The antibody of interest was analyzed for its interaction with FcγR using a BiaCore™ T100, BiaCore™ A100, or BiaCore™ 4000 surface plasmon resonance system (GE Healthcare Japan Corp.). The running buffer used was HBS-EP+ (GE Healthcare Japan Corp.). The assay temperature was set to 25° C. The sensor chips used were: a chip prepared by immobilizing antigenic peptides onto Series S Sensor Chip CM5 (GE Healthcare Japan Corp.) by the amine coupling method; a chip prepared by immobilizing antigenic peptides biotinylated in advance onto Series S Sensor Chip SA (certified) (GE Healthcare Japan Corp.) through their interaction; a chip prepared by immobilizing protein L (ACTIGEN, BioVision, Inc.) onto Series S Sensor Chip CM5 (GE Healthcare Japan Corp.); and a chip prepared by immobilizing protein A/G (Thermo Fisher Scientific K.K.) onto Series S Sensor Chip CM5 (GE Healthcare Japan Corp.). The antibody of interest was captured onto any of these chips and allowed to interact with FcγR diluted with a running buffer. The antibody captured on the chip was washed off through the reaction of 10 mM glycine-HCl (pH 1.5) to regenerate the chip, which was repetitively used.

FcγRIIa(H) = biological target: T2, FcγRIIa(H) (human, UniProt P12318 34-217)
T2 construct: extracellular domain; also called FcγRIIa H type; 2aH
T2 sequence: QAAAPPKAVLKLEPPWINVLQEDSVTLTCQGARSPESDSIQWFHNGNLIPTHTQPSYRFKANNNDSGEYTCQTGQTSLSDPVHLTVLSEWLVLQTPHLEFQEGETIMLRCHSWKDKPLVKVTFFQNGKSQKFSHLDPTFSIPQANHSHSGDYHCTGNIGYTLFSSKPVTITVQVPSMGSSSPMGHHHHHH
Description: as §1

FcγRIa = biological target: T3, FcγRIa (human, UniProt P12314 16-292)
T3 construct: extracellular domain; also called 1a
T3 sequence (P12314 other isoform, or with tags, fused parts or gaps): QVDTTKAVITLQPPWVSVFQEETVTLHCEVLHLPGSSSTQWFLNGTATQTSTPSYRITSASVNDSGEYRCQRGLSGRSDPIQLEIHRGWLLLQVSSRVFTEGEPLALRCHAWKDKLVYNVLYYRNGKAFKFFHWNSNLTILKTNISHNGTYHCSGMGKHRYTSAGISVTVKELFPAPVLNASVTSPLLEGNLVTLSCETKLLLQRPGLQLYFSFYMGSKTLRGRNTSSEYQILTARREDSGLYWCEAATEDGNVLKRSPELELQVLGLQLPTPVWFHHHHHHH
Description: as §1

FcγRIIa(R) = biological target: T4, FcγRIIa(R) (human, UniProt P12318 34-217)
T4 construct: extracellular domain; also called FcγRIIa R type; 2aR
T4 sequence: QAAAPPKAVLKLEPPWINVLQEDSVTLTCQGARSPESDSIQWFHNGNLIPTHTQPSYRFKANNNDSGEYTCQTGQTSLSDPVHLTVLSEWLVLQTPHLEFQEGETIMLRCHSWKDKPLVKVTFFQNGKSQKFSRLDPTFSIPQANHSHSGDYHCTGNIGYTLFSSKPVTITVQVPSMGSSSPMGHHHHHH
Description: as §1

Row | Binder | He/Con 2b (FcγRIIb) | He/Con 2aH (FcγRIIa(H)) | He/Con 1a (FcγRIa) | He/Con 2aR (FcγRIIa(R))
1 | GpH7-A5/GpH7-B3 variant P271_15Y/GpL16-k0 (antibody, human IgG1, kappa, heterodimerized IgG1, one H chain mutated; also called He Ab) heavy 1: not shown heavy 2: not shown light: DIVMTQSPLSLPVTPGEPASISCQASESLVHSNRNTYLHWYLQKPGQSPQLLIYKVSNRFSGVPDRFSGSGSGTDFTLKISRVEAEDVGVYYCSQNTHVPPTFGQGTKVEIERTVAAPSVFIFPPSDEQLKSGTASVVCLLNNFYPREAKVQWKVDNALQSGNSQESVTEQDSKDSTYSLSSTLTLSKADYEKHKVYACEVTHQGLSSPVTKSFNRGEC | 58.6% | 74% | 101% | 70%
2 | GpH7-A5/GpH7-B3 variant S239_07I/GpL16-k0 (antibody, human IgG1, kappa, heterodimerized IgG1, one H chain mutated; also called He Ab) heavy 1: not shown heavy 2: not shown light: DIVMTQSPLSLPVTPGEPASISCQASESLVHSNRNTYLHWYLQKPGQSPQLLIYKVSNRFSGVPDRFSGSGSGTDFTLKISRVEAEDVGVYYCSQNTHVPPTFGQGTKVEIERTVAAPSVFIFPPSDEQLKSGTASVVCLLNNFYPREAKVQWKVDNALQSGNSQESVTEQDSKDSTYSLSSTLTLSKADYEKHKVYACEVTHQGLSSPVTKSFNRGEC | 108% | 88.5% | 101% | 95.9%
3 | GpH7-A5/GpH7-B3 variant S239_01G/GpL16-k0 (antibody, human IgG1, kappa, heterodimerized IgG1, one H chain mutated; also called He Ab) heavy 1: not shown heavy 2: not shown light: DIVMTQSPLSLPVTPGEPASISCQASESLVHSNRNTYLHWYLQKPGQSPQLLIYKVSNRFSGVPDRFSGSGSGTDFTLKISRVEAEDVGVYYCSQNTHVPPTFGQGTKVEIERTVAAPSVFIFPPSDEQLKSGTASVVCLLNNFYPREAKVQWKVDNALQSGNSQESVTEQDSKDSTYSLSSTLTLSKADYEKHKVYACEVTHQGLSSPVTKSFNRGEC | 146% | 93.8% | 104% | 120%
4 | GpH7-A5/GpH7-B3 variant S239_08L/GpL16-k0 (antibody, human IgG1, kappa, heterodimerized IgG1, one H chain mutated; also called He Ab) heavy 1: not shown heavy 2: not shown light: DIVMTQSPLSLPVTPGEPASISCQASESLVHSNRNTYLHWYLQKPGQSPQLLIYKVSNRFSGVPDRFSGSGSGTDFTLKISRVEAEDVGVYYCSQNTHVPPTFGQGTKVEIERTVAAPSVFIFPPSDEQLKSGTASVVCLLNNFYPREAKVQWKVDNALQSGNSQESVTEQDSKDSTYSLSSTLTLSKADYEKHKVYACEVTHQGLSSPVTKSFNRGEC | 142% | 101% | 103% | 114%
5 | GpH7-A5/GpH7-B3 variant S239_02A/GpL16-k0 (antibody, human IgG1, kappa, heterodimerized IgG1, one H chain mutated; also called He Ab) heavy 1: not shown heavy 2: not shown light: DIVMTQSPLSLPVTPGEPASISCQASESLVHSNRNTYLHWYLQKPGQSPQLLIYKVSNRFSGVPDRFSGSGSGTDFTLKISRVEAEDVGVYYCSQNTHVPPTFGQGTKVEIERTVAAPSVFIFPPSDEQLKSGTASVVCLLNNFYPREAKVQWKVDNALQSGNSQESVTEQDSKDSTYSLSSTLTLSKADYEKHKVYACEVTHQGLSSPVTKSFNRGEC | 91.6% | 89.9% | 103% | 89.8%
6 | GpH7-A5/GpH7-B3 variant S239_06M/GpL16-k0 (antibody, human IgG1, kappa, heterodimerized IgG1, one H chain mutated; also called He Ab) heavy 1: not shown heavy 2: not shown light: DIVMTQSPLSLPVTPGEPASISCQASESLVHSNRNTYLHWYLQKPGQSPQLLIYKVSNRFSGVPDRFSGSGSGTDFTLKISRVEAEDVGVYYCSQNTHVPPTFGQGTKVEIERTVAAPSVFIFPPSDEQLKSGTASVVCLLNNFYPREAKVQWKVDNALQSGNSQESVTEQDSKDSTYSLSSTLTLSKADYEKHKVYACEVTHQGLSSPVTKSFNRGEC | 102% | 95.4% | 102% | 94.7%
7 | GpH7-A5/GpH7-B3 variant P271_16H/GpL16-k0 (antibody, human IgG1, kappa, heterodimerized IgG1, one H chain mutated; also called He Ab) heavy 1: not shown heavy 2: not shown light: DIVMTQSPLSLPVTPGEPASISCQASESLVHSNRNTYLHWYLQKPGQSPQLLIYKVSNRFSGVPDRFSGSGSGTDFTLKISRVEAEDVGVYYCSQNTHVPPTFGQGTKVEIERTVAAPSVFIFPPSDEQLKSGTASVVCLLNNFYPREAKVQWKVDNALQSGNSQESVTEQDSKDSTYSLSSTLTLSKADYEKHKVYACEVTHQGLSSPVTKSFNRGEC | 76.2% | 76.4% | 100% | 79%
8 | GpH7-A5/GpH7-B3 variant S239_03V/GpL16-k0 (antibody, human IgG1, kappa, heterodimerized IgG1, one H chain mutated; also called He Ab) heavy 1: not shown heavy 2: not shown light: DIVMTQSPLSLPVTPGEPASISCQASESLVHSNRNTYLHWYLQKPGQSPQLLIYKVSNRFSGVPDRFSGSGSGTDFTLKISRVEAEDVGVYYCSQNTHVPPTFGQGTKVEIERTVAAPSVFIFPPSDEQLKSGTASVVCLLNNFYPREAKVQWKVDNALQSGNSQESVTEQDSKDSTYSLSSTLTLSKADYEKHKVYACEVTHQGLSSPVTKSFNRGEC | 110% | 88% | 98.9% | 94.1%

The next lines start with the values.

Row | He/Con 2b (FcγRIIb) | He/Con 2aH (FcγRIIa(H)) | He/Con 1a (FcγRIa) | He/Con 2aR (FcγRIIa(R)) | Binder
9 | 256% | 121% | 105% | 167% | GpH7-A5/GpH7-B3 variant S267_02A/GpL16-k0 (antibody, human IgG1, kappa, heterodimerized IgG1, one H chain mutated; also called He Ab) heavy 1: not shown heavy 2: not shown light: DIVMTQSPLSLPVTPGEPASISCQASESLVHSNRNTYLHWYLQKPGQSPQLLIYKVSNRFSGVPDRFSGSGSGTDFTLKISRVEAEDVGVYYCSQNTHVPPTFGQGTKVEIERTVAAPSVFIFPPSDEQLKSGTASVVCLLNNFYPREAKVQWKVDNALQSGNSQESVTEQDSKDSTYSLSSTLTLSKADYEKHKVYACEVTHQGLSSPVTKSFNRGEC
10 | 209% | 111% | 104% | 129% | GpH7-A5/GpH7-B3 variant S239_09D/GpL16-k0 (antibody, human IgG1, kappa, heterodimerized IgG1, one H chain mutated; also called He Ab) heavy 1: not shown heavy 2: not shown light: DIVMTQSPLSLPVTPGEPASISCQASESLVHSNRNTYLHWYLQKPGQSPQLLIYKVSNRFSGVPDRFSGSGSGTDFTLKISRVEAEDVGVYYCSQNTHVPPTFGQGTKVEIERTVAAPSVFIFPPSDEQLKSGTASVVCLLNNFYPREAKVQWKVDNALQSGNSQESVTEQDSKDSTYSLSSTLTLSKADYEKHKVYACEVTHQGLSSPVTKSFNRGEC
11 | 121% | 91.1% | 104% | 104% | GpH7-A5/GpH7-B3 variant S239_18N/GpL16-k0 (antibody, human IgG1, kappa, heterodimerized IgG1, one H chain mutated; also called He Ab) heavy 1: not shown heavy 2: not shown light: DIVMTQSPLSLPVTPGEPASISCQASESLVHSNRNTYLHWYLQKPGQSPQLLIYKVSNRFSGVPDRFSGSGSGTDFTLKISRVEAEDVGVYYCSQNTHVPPTFGQGTKVEIERTVAAPSVFIFPPSDEQLKSGTASVVCLLNNFYPREAKVQWKVDNALQSGNSQESVTEQDSKDSTYSLSSTLTLSKADYEKHKVYACEVTHQGLSSPVTKSFNRGEC
12 | 183% | 108% | 108% | 127% | GpH7-A5/GpH7-B3 variant S239_10E/GpL16-k0 (antibody, human IgG1, kappa, heterodimerized IgG1, one H chain mutated; also called He Ab) heavy 1: not shown heavy 2: not shown light: DIVMTQSPLSLPVTPGEPASISCQASESLVHSNRNTYLHWYLQKPGQSPQLLIYKVSNRFSGVPDRFSGSGSGTDFTLKISRVEAEDVGVYYCSQNTHVPPTFGQGTKVEIERTVAAPSVFIFPPSDEQLKSGTASVVCLLNNFYPREAKVQWKVDNALQSGNSQESVTEQDSKDSTYSLSSTLTLSKADYEKHKVYACEVTHQGLSSPVTKSFNRGEC
13 | 98.6% | 95.9% | 104% | 97.4% | GpH7-A5/GpH7-B3 variant S239_14T/GpL16-k0 (antibody, human IgG1, kappa, heterodimerized IgG1, one H chain mutated; also called He Ab) heavy 1: not shown heavy 2: not shown light: DIVMTQSPLSLPVTPGEPASISCQASESLVHSNRNTYLHWYLQKPGQSPQLLIYKVSNRFSGVPDRFSGSGSGTDFTLKISRVEAEDVGVYYCSQNTHVPPTFGQGTKVEIERTVAAPSVFIFPPSDEQLKSGTASVVCLLNNFYPREAKVQWKVDNALQSGNSQESVTEQDSKDSTYSLSSTLTLSKADYEKHKVYACEVTHQGLSSPVTKSFNRGEC
14 | 87.3% | 80% | 104% | 79.8% | GpH7-A5/GpH7-B3 variant S239_19Q/GpL16-k0 (antibody, human IgG1, kappa, heterodimerized IgG1, one H chain mutated; also called He Ab) heavy 1: not shown heavy 2: not shown light: DIVMTQSPLSLPVTPGEPASISCQASESLVHSNRNTYLHWYLQKPGQSPQLLIYKVSNRFSGVPDRFSGSGSGTDFTLKISRVEAEDVGVYYCSQNTHVPPTFGQGTKVEIERTVAAPSVFIFPPSDEQLKSGTASVVCLLNNFYPREAKVQWKVDNALQSGNSQESVTEQDSKDSTYSLSSTLTLSKADYEKHKVYACEVTHQGLSSPVTKSFNRGEC
15 | 326% | 107% | 106% | 186% | GpH7-A5/GpH7-B3 variant S267_09D/GpL16-k0 (antibody, human IgG1, kappa, heterodimerized IgG1, one H chain mutated; also called He Ab) heavy 1: not shown heavy 2: not shown light: DIVMTQSPLSLPVTPGEPASISCQASESLVHSNRNTYLHWYLQKPGQSPQLLIYKVSNRFSGVPDRFSGSGSGTDFTLKISRVEAEDVGVYYCSQNTHVPPTFGQGTKVEIERTVAAPSVFIFPPSDEQLKSGTASVVCLLNNFYPREAKVQWKVDNALQSGNSQESVTEQDSKDSTYSLSSTLTLSKADYEKHKVYACEVTHQGLSSPVTKSFNRGEC
16 | 110% | 72.1% | 99.9% | 121% | GpH7-A5/GpH7-B3 variant S267_01G/GpL16-k0 (antibody, human IgG1, kappa, heterodimerized IgG1, one H chain mutated; also called He Ab) heavy 1: not shown heavy 2: not shown light: DIVMTQSPLSLPVTPGEPASISCQASESLVHSNRNTYLHWYLQKPGQSPQLLIYKVSNRFSGVPDRFSGSGSGTDFTLKISRVEAEDVGVYYCSQNTHVPPTFGQGTKVEIERTVAAPSVFIFPPSDEQLKSGTASVVCLLNNFYPREAKVQWKVDNALQSGNSQESVTEQDSKDSTYSLSSTLTLSKADYEKHKVYACEVTHQGLSSPVTKSFNRGEC
